The values that follow come from IntAct's records for PubMed 21803990.

Sequences and labels used below:
B1: ATP-dependent protease ATPase subunit HslU (Escherichia coli (strain K12)), P0A6H5 (parent)
chain: MSEMTPREIVSELDKHIIGQDNAKRSVAIALRNRWRRMQLNEELRHEVTPKNILMIGPTGVGKTEIARRLAKLANAPFIKVEATKFTEVGYVGKEVDSIIRDLTDAAVKMVRVQAIEKNRYRAEELAEERILDVLIPPAKNNWGQTEQQQEPSAARQAFRKKLREGQLDDKEIEIDLAAAPMGVEIMAPPGMEEMTSQLQSMFQNLGGQKQKARKLKIKDAMKLLIEEEAAKLVNPEELKQDAIDAVEQHGIVFIDEIDKICKRGESSGPDVSREGVQRDLLPLVEGCTVSTKHGMVKTDHILFIASGAFQIAKPSDLIPELQGRLPIRVELQALTTSDFERILTEPNASITVQYKALMATEGVNIEFTDSGIKRIAEAAWQVNESTENIGARRLHTVLERLMEEISYDASDLSGQNITIDADYVSKHLDALVADEDLSRFIL
partner: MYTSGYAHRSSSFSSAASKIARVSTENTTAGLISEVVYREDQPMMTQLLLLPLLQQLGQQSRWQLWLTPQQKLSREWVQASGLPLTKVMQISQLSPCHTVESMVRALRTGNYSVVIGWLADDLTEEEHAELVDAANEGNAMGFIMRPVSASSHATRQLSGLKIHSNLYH

The variants in one assay derive from B1. The settings on record: with sula_ecoli sulA.
In the case of Y408A, the “effect of a mutation on the interaction” value is reported as “increasing interaction”.

With Y91F, the “effect of a mutation on the interaction” value is “increasing interaction”.

For E266Q, the “effect of a mutation on the interaction” value is given as “increasing interaction”.

The variants in another assay derive from B1. The settings on record: with sula_ecoli sulA. This is another data set of the same source.
Take G90D: the “effect of a mutation on the interaction” value was “increasing interaction”.
